# Test results: the domain aggregation screens of Martell et al. (2025)
# Experiment: soluble fraction after stress (log2 fold change); higher = more stays soluble; pooled small domains, quantitative proteomics
# Details: stress: 50 degC
# In short: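 Custom libraries of small protein domains were pooled and measured in a high-throughput format, with quantitative proteomics as the read-out. Each library was stressed at 50°C. The value is the log2 fold change in the amount of each protein that stays soluble after stress, used as a measure of aggregation propensity; higher values mean more of the protein stays soluble.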
row,Sequence,soluble fraction (log2)
1,HMFDGRSDAEKTLDLIKTAIDNILKGGAIQEYKIGTRTAKKYDMAELQVLKGEYAAMVAREKQAETMA,-0.132
2,HMNALTEAESKLLERMNKAGIHAEITTKKAAGILQRSENGARTVLNSLVKKGYLTVETNKAPYIYHLH,-0.11
3,HMEEVVIPDLAGLTEEEATKVLMAKELKLKVSGSQHSDIEKGLIISQDPPAGEKGAKNSQVAVVTSSG,0.103
4,HMNQDMINFDKLSVRLKNVLIENNLKTVDSLLNYPAEEFEYLTNLGEKTLQELLTYRNELAASNNIQ,-0.289
5,HMVDWTFPVLVKDVVMMGRYGHMGFLRIPGKKDFESVDNALAKVGMVEYAKQQIGELSGGQR,-0.0772
6,HMARTTIATPWDKINDLLQGGLGNGDFGLIFGNPGGGKSWSLVALGGFAVKLGYNVIHYTLE,-0.054
7,HMHAQDTLMTRAGETRTVKILEIGLEEIKYRIWGLDDSPVIVIDKIDVKQIVFSNGEKMTIVQ,-1.44
8,HMQRGRTFSIVLNWKGRLLSTQMFFPQFTRPTKEQVTFEINKVYPGAMVYYYNPIEKDPSQPLV,-1.07
9,HMNTPAENFDKAVEKYKSTNSATEKDAAFKVIEDEWIKLSDEEKKERQDEYDSIFESEGDRV,0.126
10,HMREIKSNEILLEVENLKNSEFFNDINFNIKKGEIVGFSGLIGAGRTELALTLFGYYKAESGKVIQ,0.061
11,HMDEIELLLQDAIQKLPEKQRMVFTLRYYDNLPYEEISKILDMSVSTLKTNYHYAKSKIEQYILDHS,-0.607
12,HMHKYEYESLNHVNVGSNLKYISTHFGQPKLIKKSKYHENLNFAYYLEKKFILTLILEGDRVNAYTITG,0.0565
13,HMLETADDAKRFLGAIISEKKAENLLRVYPDIIERIVAGKPVDLSLVKGIKQKTFDKLRQKVISHYSMY,0.119
14,HMKKALTAEQEARVRELYFRGINYYSANRYQDAIAEWRKVLAIDPNHEKAKNNIRQTLILLK,-0.257
15,HMLDPIQEGKKMLNSRLSGFGITPNTRLMNKLLAAYNISSREEFYGRIGAGIEDLSTLREVLLKGT,-0.284
16,HMGTGVEQGKQYRTLKRDFDGASGIKVNGDFYRLRTSDTGMTELPAGTEVTFERFDGTTAVVHT,-0.0841
17,HMTKSEWLRESREHLGLSQTDLRNLLNTALNRSYDKSRISRWENSKENIPAEVVKQIESLIATR,0.123
18,HMNKKEQYQNIISNFLEKMSEEDRLIFNMHFFKSINISQIARSIDREGYYVKTKIENLLADLKSLMIGNNL,-1.95
19,HMAKETLRANIKDYIQKQIASGVYRPGDRIVETQLAREMNVSQAPVREAILELVSLGLLEERPYSGHMVRQ,0.178

row,Sequence,soluble fraction (log2)
1,HMVSLRQQVYDYLRSQMNQGELRPGSAINLGEMSSRFGISRTPLREALLQLETEGFVTIYPRKGIIVN,-0.793
2,HMLSAGTTEQRLAMLQYQWEKQSETYSALGPNNGVVTLGQIRNTMAKIAELAGFKDAAQFWMPVPMDYDV,-0.323
3,HMEITSSNELKKMISNLINSENKNNPISDSNIVEKLKENDFLVARRTVAKYRKLLGIKNVNQRKE,-0.112
4,HMNLLGDNIRKLRLEKGLGLNEVARLANITGGYLSSIENNKRTNVGTEILESIAKAIGVSVSDFYL,-0.0298
5,HMPTSILEKILNSAAEQFTRYGFKTITMDDIARHAGVSKKTLYQHFETKLDIIVAAVTHFHTMKF,-0.718
6,HMATLTPLGRLQLARYHAQERATLAATAERFQVSTTTVRRWVGRYHQVVAAGGRPTTADMQDRPSRP,-2
7,HMLQSGSDYLIEQVRMYTATGQREYMDNYFEELNTTRRRENALEYFAEHYGDNDAFTLLKSAMTTSQN,-0.428
8,HMQFSAVVLDMETRRQVAGVAVYINPKGVVKTDMRGRFVIDGAFNSVTLVRQGYESLTLERSEMTDSIWM,-1.65
9,HMPKITTIHIDPEKISKVIGPGGKTVKKIIEETGAKIDIEDTGKIFIAAVNTEAANKAIDMINGIVA,0.103
10,HMEPVQPVMYSEFIESVERGEVVEATIQGDKIIATDRSGNRYTVVGSAKDPQLVGQLLERNVAFKFVEE,0.00245
11,HMDIRLMPGTVLTREYQGIEHRVTVAQDGQYEFEGRRYPSLSMIAREITGTRWSGPLFFGVK,-0.657
12,HMVITPESVKEQVLAIISKSPAQGFNYKQISKRLNINDPSERKMVSDILRELSESGTIEEINKGKYRAKV,-0.0556
13,HMREIDIWVAEDADSQRIDKYLSMVVEDLSRSRIASLIEGGSILVNGEVIRAKYKVKPADHITAAFEDEM,-0.72
14,HMKISDTITEKILTDNNFSMELAKKIGIQQGSLLSSIRRNRDSRILRLWEAVMFYKEQGYTEEEIFTDY,-1.27
15,HMNQDIIEIGNNIQKIRKKNGISQSVLAEKIDVAGNSIYRMEGATTVMGVDKLINIADALNTSPMDILPAR,0.13
16,HMSDIDIDVENDRAALAIAGGKLNHLVGARGEVLDALQELTRLAVQTSLGERSRLMLDIDNFRSD,-0.00224
17,HMETGLSNYEFKRIREQAEALLSDGQVRRINDLVDSIKNENAEKVIRVIRFLIDTEELILEDDRVSAKKS,-0.0558
18,HMNNQKATAVKVASGIVNLRSGPATSYETLDTVATGETLSVLAEKDGWFQVSRAGRTGWVAGWVVDVIRE,-0.0645
19,HMDKEVMEAVLRILYDDDFNPDQRDAILYFFVQELDQRTISEITGAKIGTVKKRIHDGLKKLRQKLAKEDL,-1.36
